Test results taken from the supplement of paper PMC7877785.
± gives the uncertainty stated by the source.

Assay: self-splicing fitness, log relative to wild type (ln ratio); higher = more splicing; Tetrahymena group I intron in knt gene, E. coli kanamycin selection, DiMSum; sequences stand for … in CUCUCU…GGAGGGAAAAGUUAUCAGGCAUGCACCUGGUAGCUAGUCUUUAAACCAAUAGAUUGCAUCGGUUUAAAAGGCAAGACCGUCAAAUUGCGGGAAAGGGGUCAACAGCCGUUCAGUACCAAGUCUCAGGGGAAACUUUGAGAUGGCCUUGCAAAGGGUAUGGUAAUAAGCUGACGGACAUGGUCCUAACCACGCAGCCAAGUCCUAAGUCAACAGAUCUUCUGUUGAUAUGGAUGCAGUUCACAGACUAAAUGUCGGUCGGGGAAGAUGUAUUCUUCUCAUAAGAUAUAGUCGGACCUCUCCUUAAUGGGAGCUAGCGGAUGAAGUGAUGCAACACUGGAGCCGCUGGGAACUAAUUUGUAUGCGAAAGUAUAUUGAUUAGUUUUGGAGUACUCGUGGUCG
Outline: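 Six replicate transformations of E. coli BL21(DE3) with a pET-22b(+) library were grown overnight at 37°C or 30°C. The library randomised all eight P1ex-region intron nucleotides, the intron lying in the knt kanamycin-resistance gene, and plates were LB agar with or without 25 μg/mL kanamycin plus 100 μg/mL carbenicillin, 50 μM IPTG and 0.2% rhamnose. Pooled colonies were amplicon-sequenced on an Illumina HiSeq 2500, and fitness is the DiMSum error-weighted combination of wild-type-normalised replicate fold changes, kanamycin versus none.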

Sequence	self-splicing fitness (ln) (30 °C)	self-splicing fitness (ln) (37 °C)
ACAAAGCAAUAUUACGACAU	-0.488 ± 0.011	0.0402 ± 0.032
ACAAAGCAAUAUUACGAGCU	-0.866 ± 0.066	-0.624 ± 0.097
ACAAAGCAAUAUUACGAGGC	-2.57 ± 0.16	-1.59 ± 0.34
ACAAAGCAAUAUUACGCCAU	-3.96 ± 0.2	-2.24 ± 0.14
ACAAAGCAAUAUUACGCCUA	-1.61 ± 0.13	-1.32 ± 0.12
ACAAAGCAAUAUUACGCGCA	-0.72 ± 0.067	-0.569 ± 0.078
ACAAAGCAAUAUUACGCGUC	-4.08 ± 0.31	-2.09 ± 0.22
ACAAAGCAAUAUUACGCGUU	-3.19 ± 0.1	-2.69 ± 0.14
ACAAAGCAAUAUUACGCUAU	-2.38 ± 0.088	-0.848 ± 0.092
ACAAAGCAAUAUUACGCUCC	-1.29 ± 0.16	-0.526 ± 0.17
ACAAAGCAAUAUUACGCUCG	-0.887 ± 0.08	0.156 ± 0.12
ACAAAGCAAUAUUACGCUUC	-3.15 ± 0.14	-2.46 ± 0.16
ACAAAGCAAUAUUACGGAUU	-2.49 ± 0.085	-0.946 ± 0.081
ACAAAGCAAUAUUACGGCAA	-0.0281 ± 0.08	-0.252 ± 0.1
ACAAAGCAAUAUUACGGGCC	-3.9 ± 0.3	-2.32 ± 0.24
ACAAAGCAAUAUUACGGGCG	-0.625 ± 0.05	0.111 ± 0.067
ACAAAGCAAUAUUACGGGUG	-1.21 ± 0.046	-0.593 ± 0.064
ACAAAGCAAUAUUACGUACA	-1.6 ± 0.083	-0.786 ± 0.089
ACAAAGCAAUAUUACGUACU	-0.16 ± 0.049	-0.0261 ± 0.072
ACAAAGCAAUAUUACGUCGU	-2.74 ± 0.093	-2.05 ± 0.12
ACAAAGCAAUAUUACGUGAG	-0.439 ± 0.049	-0.4 ± 0.079

Sequence	self-splicing fitness (ln) (30 °C)	self-splicing fitness (ln) (37 °C)
ACAAAGCAAUAUUACGUGAU	-1.51 ± 0.063	-1.09 ± 0.086
ACAAAGCAAUAUUACGUGGC	-3.72 ± 0.21	-2.91 ± 0.18
ACAAAGCAAUAUUACGUUAA	-2.91 ± 0.17	-1.32 ± 0.12
ACAAAGCAAUAUUACGUUGA	-1.49 ± 0.079	-1.24 ± 0.089
ACACAGCAAUAUUACGAAAG	-2.32 ± 0.074	-2.06 ± 0.11
ACACAGCAAUAUUACGACAA	-1.86 ± 0.11	-0.755 ± 0.14
ACACAGCAAUAUUACGACUC	-0.737 ± 0.063	-0.631 ± 0.072
ACACAGCAAUAUUACGAGGG	-3.71 ± 0.11	-1.85 ± 0.1
ACACAGCAAUAUUACGAGUG	-1.43 ± 0.041	-0.923 ± 0.057
ACACAGCAAUAUUACGAUCC	-1.21 ± 0.093	-0.951 ± 0.13
ACACAGCAAUAUUACGAUCU	-0.658 ± 0.053	0.14 ± 0.082
ACACAGCAAUAUUACGAUGC	-1.92 ± 0.073	-0.965 ± 0.094
ACACAGCAAUAUUACGAUUU	-0.589 ± 0.036	0.0571 ± 0.056
ACACAGCAAUAUUACGCAUA	-2.45 ± 0.08	-1.49 ± 0.072
ACACAGCAAUAUUACGCCAC	-3.38 ± 0.33	-2.66 ± 0.31
ACACAGCAAUAUUACGCCAG	-2.45 ± 0.1	-1.13 ± 0.13
ACACAGCAAUAUUACGCCGA	-1.15 ± 0.08	-1.34 ± 0.094
ACACAGCAAUAUUACGCGAA	-2.47 ± 0.12	-1.4 ± 0.12
ACACAGCAAUAUUACGCUGC	-2.18 ± 0.16	-1.14 ± 0.15
ACACAGCAAUAUUACGGAAA	-3.13 ± 0.26	-2.5 ± 0.22
ACACAGCAAUAUUACGGACA	-1.63 ± 0.095	-1.04 ± 0.089
